Patent CN114380913A (SHANGHAI LUBRIGHT MEDICINE TECH CO LTD, dated 2022)

How the values were obtained:
[1] = biological target: T1, CHOK1-h PD-L1(GenScript M00543)细胞表面PD-L1 (human, UniProt Q9NZQ7 19-290); assay: FACS on CHOK1-hPD-L1 cells
T1 construct: whole, on cells; also called 细胞表面抗原PD-L1

[2] = biological target: T1, CHOK1-h PD-L1(GenScript M00543)细胞表面PD-L1; assay: FACS competition: blocks Biotin PD-1 mFc binding to CHOK1-hPD-L1 cells
[3] = biological target: T2, 生物素标记的人PD-L1(acro，货号:PD1-H82E5) (human, UniProt Q9NZQ7 19-238, biotin label (site not stated)); assay: BLI (Octet RED96e), avidity format: Biotin hPD-L1 on SA sensor, antibody in solution
T2 construct: Bought biotinylated protein; also called Biotin hPD-L1; BiotinhPD-L1

[4] = biological target: T3, 生物素标记的鼠PD-L1(Sino，货号:50010-M08H-B) (mouse, UniProt Q9EP73 19-238, biotin label (site not stated)); assay: BLI (Octet RED96e), avidity format: Biotin mPD-L1 on SA sensor, antibody in solution
T3 construct: Bought biotinylated protein; also called Biotin mPD-L1
T3 sequence (Q9EP73 19-238 limits assumed, stated change not applied): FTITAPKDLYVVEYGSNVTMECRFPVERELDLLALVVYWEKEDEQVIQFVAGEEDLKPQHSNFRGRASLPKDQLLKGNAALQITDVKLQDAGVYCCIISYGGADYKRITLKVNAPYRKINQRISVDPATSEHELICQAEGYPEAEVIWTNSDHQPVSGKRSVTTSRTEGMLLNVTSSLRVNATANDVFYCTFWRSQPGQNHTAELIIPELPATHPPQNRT

[5] = biological target: T4, 猴PD-L1-Fc(Acro，货号:PD1-C5253) (monkey (cynomolgus)); assay: BLI (Octet RED96e), avidity format: antibody on CH1 sensor, monkey PD-L1-Fc in solution
T4 construct: Bought Fc fusion; also called Cyno PD-L1; 食蟹猴PD-L1

[6] = biological target: T5, 人PD-L1 his(Acro，货号:PD1-H5229) (human, UniProt Q9NZQ7 19-238); assay: BLI (Octet RED96e), affinity format: antibody on AHC sensor, human PD-L1 his in solution
T5 construct: Bought protein; also called human PD-L1 his; not shown: His tag

B1: Ab1910T2 (antibody, human IgG1, kappa, N297A, V domains shown)
VH: EVQLVESGGGLVQPGGSLRLSCAASGFPFTNYAMSWVRQAPGKGLEWVSSISGSGAGTYYADSVKGRFTISRDNSKNTLYLQMNSLRAEDTAVYYCAKDLFPTIFGVVTTNYMDVWGKGTTVTVSS
VL: DIQMTQSPSSLSASVGDRVTITCRASQSISSYLNWYQQKPGKAPKLLIYSASSLQIGVPSRFSGSGSGTDFTLTISSLQPEDFATYYCQQSYSIPVTFGQGTKVEIKR
notes: Full human IgG1 (Fc N297A) / kappa, made in ExpiCHO; also called 本申请抗PD-L1抗体Ab1910T2; 所述抗PD-L1单克隆抗体
Q: Which EC50 [1] does the source give for B1 here?
A: 0.02 µg/mL

Q: What about the IC50 [2] of the same binder?
A: 1.02 µg/mL

Q: What about the Kd [3] of the same binder?
A: ~0.15 nM

Q: And the Kd [4]?
A: ~0.58 nM

Q: What about the Kd [5] of the same binder?
A: ~0.79 nM

Q: What about the Kd [6] of the same binder?
A: ~26 nM
